These results are taken from article PMC8930183, “Structure of the Pf12 and Pf41 heterodimeric complex of Plasmodium falciparum 6-cysteine proteins” (FEMS Microbes, 2022).

What all share (conditions): both partners purified
One assay addresses T1, Pf41 D1D2 E367A (Plasmodium falciparum, UniProt Q8I1Y0 21-368, E367A).
T1 construct: Pf41, Plasmodium falciparum, residues K21-S368 (D1D2); source: Spodoptera frugiperda 21 cells, purified (Ni-IMAC, TEV cleavage, SEC); not shown: His8, N-terminal, cleaved
T1 sequence: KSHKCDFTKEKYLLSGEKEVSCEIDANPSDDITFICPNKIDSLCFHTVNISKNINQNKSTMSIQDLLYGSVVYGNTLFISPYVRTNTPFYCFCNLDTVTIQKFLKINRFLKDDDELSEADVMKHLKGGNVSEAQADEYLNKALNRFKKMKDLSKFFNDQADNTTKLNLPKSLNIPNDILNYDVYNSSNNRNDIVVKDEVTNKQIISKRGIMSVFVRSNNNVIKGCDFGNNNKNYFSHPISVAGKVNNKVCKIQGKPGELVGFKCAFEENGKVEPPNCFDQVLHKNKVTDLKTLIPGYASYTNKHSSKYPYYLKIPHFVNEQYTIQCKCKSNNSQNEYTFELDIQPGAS
Kind of assay: BLI; Octet RED96e; octa-histidine tagged Pf12 loaded on NTA sensors; untagged Pf41 wildtype or mutant 31-1000 nM; PBS pH 7.4, 0.1% BSA, 0.05% TWEEN-20, 25°C; read-out relative maximum response against wildtype. On the technique in general: In BLI a coated tip is dipped into the sample, and binding shifts an interference pattern.

For a further assay, the target named is T2, Pf41 D1D2 N339A (Plasmodium falciparum, UniProt Q8I1Y0 21-368, N339A).
T2 construct: Pf41, Plasmodium falciparum, residues K21-S368 (D1D2); source: Spodoptera frugiperda 21 cells, purified (Ni-IMAC, TEV cleavage, SEC); not shown: His8, N-terminal, cleaved
T2 sequence: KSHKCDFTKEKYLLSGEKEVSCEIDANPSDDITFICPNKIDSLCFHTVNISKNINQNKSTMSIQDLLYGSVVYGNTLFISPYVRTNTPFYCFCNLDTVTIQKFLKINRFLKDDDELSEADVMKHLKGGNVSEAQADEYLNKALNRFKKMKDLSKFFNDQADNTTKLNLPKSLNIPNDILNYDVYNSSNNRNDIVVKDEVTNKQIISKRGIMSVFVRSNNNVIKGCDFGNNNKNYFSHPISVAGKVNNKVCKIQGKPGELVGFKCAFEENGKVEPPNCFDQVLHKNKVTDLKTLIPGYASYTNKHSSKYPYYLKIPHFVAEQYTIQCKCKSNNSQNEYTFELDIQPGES
The assay is described as above.

Another assay deals with T3, Pf41 D1D2 F166L (Plasmodium falciparum, UniProt Q8I1Y0 21-368, F166 L).
T3 construct: Pf41, Plasmodium falciparum, residues K21-S368 (D1D2); source: Spodoptera frugiperda 21 cells, purified (Ni-IMAC, TEV cleavage, SEC); not shown: His8, N-terminal, cleaved
T3 sequence: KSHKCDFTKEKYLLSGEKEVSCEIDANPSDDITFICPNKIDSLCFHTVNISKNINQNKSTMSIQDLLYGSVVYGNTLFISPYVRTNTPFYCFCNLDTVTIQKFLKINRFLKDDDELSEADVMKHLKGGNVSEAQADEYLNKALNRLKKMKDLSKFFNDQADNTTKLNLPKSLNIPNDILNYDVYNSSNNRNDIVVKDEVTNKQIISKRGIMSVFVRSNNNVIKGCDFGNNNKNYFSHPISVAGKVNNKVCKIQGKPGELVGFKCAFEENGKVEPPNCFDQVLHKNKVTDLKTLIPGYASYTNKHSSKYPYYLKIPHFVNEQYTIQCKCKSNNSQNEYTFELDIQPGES
Described as above.

Assay [1] concerns the target T4, Pf41 D1D2 (residues 21-368), untagged (Plasmodium falciparum, UniProt Q8I1Y0 21-368).
T4 construct: Pf41, Plasmodium falciparum 6-cysteine protein, residues K21-S368 (D1 with the inserted-domain-like region ID, and D2); lacks the signal peptide and ten C-terminal residues; After TEV cleavage three residues, GAS, remain at the N-terminus as cloning artefacts; N-glycosylation sites kept; treated with PNGase F before crystallisation; also called Pf41 wildtype; source: Spodoptera frugiperda 21 …
T4 sequence (looked up): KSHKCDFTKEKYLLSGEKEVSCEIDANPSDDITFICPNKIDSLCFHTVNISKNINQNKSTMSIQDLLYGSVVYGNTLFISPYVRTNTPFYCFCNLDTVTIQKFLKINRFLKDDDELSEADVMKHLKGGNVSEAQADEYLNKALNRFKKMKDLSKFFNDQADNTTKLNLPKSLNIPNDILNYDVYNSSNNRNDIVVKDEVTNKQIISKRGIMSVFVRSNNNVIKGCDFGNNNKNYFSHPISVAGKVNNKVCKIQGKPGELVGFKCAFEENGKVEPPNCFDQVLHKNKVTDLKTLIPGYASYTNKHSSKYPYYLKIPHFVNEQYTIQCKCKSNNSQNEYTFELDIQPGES
The assay is described as above.

The target of the next assay is T5, Pf41 D1D2 E340A (Plasmodium falciparum, UniProt Q8I1Y0 21-368, E340A).
T5 construct: Pf41, Plasmodium falciparum, residues K21-S368 (D1D2); source: Spodoptera frugiperda 21 cells, purified (Ni-IMAC, TEV cleavage, SEC); not shown: His8, N-terminal, cleaved
T5 sequence: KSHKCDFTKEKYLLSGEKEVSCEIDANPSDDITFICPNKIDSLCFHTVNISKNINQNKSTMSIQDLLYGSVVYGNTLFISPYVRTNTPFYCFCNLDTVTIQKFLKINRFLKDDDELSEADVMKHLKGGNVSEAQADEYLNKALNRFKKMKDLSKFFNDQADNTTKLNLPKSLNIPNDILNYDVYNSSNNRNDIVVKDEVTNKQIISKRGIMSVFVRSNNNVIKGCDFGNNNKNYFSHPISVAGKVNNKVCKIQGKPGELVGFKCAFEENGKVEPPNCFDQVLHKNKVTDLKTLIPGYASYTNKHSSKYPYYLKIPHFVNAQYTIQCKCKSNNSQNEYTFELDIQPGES
The description is as above.

Another assay addresses T6, Pf41 D1D2 H336A (Plasmodium falciparum, UniProt Q8I1Y0 21-368, H336 to alanine).
T6 construct: Pf41, Plasmodium falciparum, residues K21-S368 (D1D2); source: Spodoptera frugiperda 21 cells, purified (Ni-IMAC, TEV cleavage, SEC); not shown: His8, N-terminal, cleaved
T6 sequence: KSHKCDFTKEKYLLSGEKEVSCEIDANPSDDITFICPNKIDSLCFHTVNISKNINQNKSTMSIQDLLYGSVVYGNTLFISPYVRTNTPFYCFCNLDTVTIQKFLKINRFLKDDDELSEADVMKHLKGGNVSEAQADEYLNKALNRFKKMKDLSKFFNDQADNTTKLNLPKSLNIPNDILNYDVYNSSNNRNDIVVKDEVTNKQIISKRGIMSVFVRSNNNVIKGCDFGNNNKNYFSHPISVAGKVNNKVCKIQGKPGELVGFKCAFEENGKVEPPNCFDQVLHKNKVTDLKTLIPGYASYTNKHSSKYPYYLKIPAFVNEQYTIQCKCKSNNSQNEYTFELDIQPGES
The assay is described as above.

Assay [2] addresses T7, Pf12 D1D2 (residues 28-304), untagged (Plasmodium falciparum, UniProt C6KSX0).
T7 construct: Pf12, Plasmodium falciparum 6-cysteine protein, residues N28-S304 (domains D1 and D2); lacks the signal peptide and the GPI-anchor site; After TEV cleavage three residues, GAS, remain at the N-terminus as cloning artefacts; N-glycosylation sites kept; treated with PNGase F before crystallisation; also called Pf12 wildtype; source: Spodoptera frugiperda 21 cells, secreted into growth media, …
The assay is described as follows: BLI; Octet RED96e; nanobodies loaded on NTA sensors; untagged Pf12 or Pf41 (6-200 nM) or their domains in solution; PBS pH 7.4, 0.1% BSA, 0.05% TWEEN-20, 25°C; global 1:1 fit.

For assay [3], the target named is T8, Pf12 D2 (residues E174-S304) (Plasmodium falciparum, UniProt C6KSX0).
T8 construct: Pf12, Plasmodium falciparum, C-terminal 6-cys domain D2, residues E174-S304; also called Pf12 D2 domain; source: Spodoptera frugiperda 21 cells, purified by the same protocol as Pf12 D1D2; not shown: His8, N-terminal, cleaved
The assay is described as above.

In assay [4] the target is T9, Pf41 D1D2 (residues 21-368), untagged (Plasmodium falciparum, UniProt Q8I1Y0).
T9 construct: Pf41, Plasmodium falciparum 6-cysteine protein, residues K21-S368 (D1 with the inserted-domain-like region ID, and D2); lacks the signal peptide and ten C-terminal residues; After TEV cleavage three residues, GAS, remain at the N-terminus as cloning artefacts; N-glycosylation sites kept; treated with PNGase F before crystallisation; also called Pf41 wildtype; source: Spodoptera frugiperda 21 …
The description is as above.

In assay [5] the target is T10, Pf12 D1 (residues N28-L172) (Plasmodium falciparum, UniProt C6KSX0).
T10 construct: Pf12, Plasmodium falciparum, N-terminal 6-cys domain D1, residues N28-L172; also called Pf12 D1 domain; source: Spodoptera frugiperda 21 cells, purified by the same protocol as Pf12 D1D2; not shown: His8, N-terminal, cleaved
The description is as above.

B1: octa-histidine tagged Pf12 D1D2 (residues 28-304) (domain or fragment)
chain: NLTCDFNDVYKLEFHPNQQTSVTKLCNLTPNVLEKVTIKCGSDKLNYNLYPPTCFEEVYASRNMMHLKKIKEFVIGSSMFMRRSLTPNKINEVSFRIPPNMMPEKPIYCFCENKKTITINGSNGNPSSKKDIINRGIVEIIIPSLNEKVKGCDFTTSESTIFSKGYSINEISNKSSNNQQDIVCTVKAHANDLIGFKCPSNYSVEPHDCFVSAFNLSGKNENLENKLKLTNIIMDHYNNTFYSRLPSLISDNWKFFCVCSKDNEKKLVFTVEASISS
notes: Pf12, Plasmodium falciparum 6-cysteine protein, residues N28-S304 (domains D1 and D2); TEV-cleavable tag left on; loaded on NTA sensors; also called tagged wildtype Pf12; source: Spodoptera frugiperda 21 cells, secreted into growth media, purified as tagged protein (Ni-IMAC, SEC); not shown: His8, N-terminal, kept
Consider B1, for which the binding result (in the assay with Pf41 D1D2 E367A; with Pf41 D1D2 N339A; with Pf41 D1D2 F166L; in assay [1]; in the assay with Pf41 D1D2 E340A; in the assay with Pf41 D1D2 H336A) was “binds” throughout.

B2: nanobody H2 (VHH)
VHH: QVQLQESGGGSVQAGGSLRLSCTTSRRTRNTHAMGWFRQAPGKEREFVAAISWIDSSTYYADSVKGRFTMSGGNARNTVYLQMNSLEPEDTAVYYCAAGSVVAGFWEEVGYDYWGQGTQVTVSS
notes: alpaca, immunised with Pf12-Pf41 complex; Pf12-specific (D1 domain); source: E. coli WK6, periplasmic extract, purified (HisTrap, SEC)
On to B2, for which the binding result was “binds” in assay [2], “no binding” in [3], “no binding” in assay [4] and “binds” in assay [5].
